B1: YPEL3 (parent)
chain: SKPKTFQAYLDDCHRRYSCAHCRA
B2: RAB22A (parent)
chain: FVEDSFDPNINPTIGASFMTKTVQ

Variants of: B1
Test: protein stability index of a GFP-peptide fusion (GPS, HEK-293T) (PSI 1-6); higher = more stable
Settings: c terminus: a fixed tail appended
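Note: lentivirally expressed fusions sorted by FACS into six bins by GFP to DsRed ratio, PSI derived from sequencing read proportions per bin multiplied by bin number.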

First: SKPKTFQAYLDDCHRRYSCAHCDA [R23D]
Second: SKPKTFQAYLDDCHRRYSCAHCSA [R23S]
The protein stability index of the first is lower: 2.18 for the first, 3.52 for the second.

First: SKPKTFQAYLDDCHRRYSCAHCGA [R23G]
Second: SKPKTFQAYLDDCHRRYSCAHCNA [R23N]
The protein stability index of the first is lower: 1.39 for the first, 2.91 for the second.

First: SKPKTFQAYLDDCHRRYSCAHCCA [R23C]
Second: SKPKTFQAYLDDCHRRYSCAHCIA [R23I]
The protein stability index of the first is lower: 1.24 for the first, 3.07 for the second.

Compared with SKPKTFQAYLDDCHRRYSCAHCWA [R23W], SKPKTFQAYLDDCHRRYSCAHCMA [R23M] is lower in protein stability index: 2.08 for the first, 2 for the second.

Compared with SKPKTFQAYLDDCHRRYSCAHCLA [R23L], SKPKTFQAYLDDCHRRYSCAHCAA [R23A] is higher in protein stability index: 2.37 for the first, 3.07 for the second.

First: SKPKTFQAYLDDCHRRYSCAHCPA [R23P]
Second: SKPKTFQAYLDDCHRRYSCAHCEA [R23E]
The protein stability index of the first is higher: 2.11 for the first, 2.09 for the second.

Going from SKPKTFQAYLDDCHRRYSCAHCHA [R23H] to SKPKTFQAYLDDCHRRYSCAHCKA [R23K], the protein stability index falls from 2.59 to 2.03.

Going from SKPKTFQAYLDDCHRRYSCAHCVA [R23V] to SKPKTFQAYLDDCHRRYSCAHCFA [R23F], the protein stability index falls from 3.34 to 2.61.

Going from SKPKTFQAYLDDCHRRYSCAHCQA [R23Q] to SKPKTFQAYLDDCHRRYSCAHDRA [C22D], the protein stability index rises from 1.86 to 2.94.

Going from SKPKTFQAYLDDCHRRYSCAHHRA [C22H] to SKPKTFQAYLDDCHRRYSCAHPRA [C22P], the protein stability index rises from 1.82 to 2.61.

First: SKPKTFQAYLDDCHRRYSCAHWRA [C22W]
Second: SKPKTFQAYLDDCHRRYSCAHTRA [C22T]
The protein stability index of the first is lower: 1.77 for the first, 2.73 for the second.

First: SKPKTFQAYLDDCHRRYSCAHFRA [C22F]
Second: SKPKTFQAYLDDCHRRYSCAHARA [C22A]
The protein stability index of the first is higher: 2.32 for the first, 2.04 for the second.

Compared with SKPKTFQAYLDDCHRRYSCAHERA [C22E], SKPKTFQAYLDDCHRRYSCAHNRA [C22N] is higher in protein stability index: 2.34 for the first, 2.45 for the second.

Going from SKPKTFQAYLDDCHRRYSCAHYRA [C22Y] to SKPKTFQAYLDDCHRRYSCAHMRA [C22M], the protein stability index falls from 2.17 to 1.98.

First: SKPKTFQAYLDDCHRRYSCAHGRA [C22G]
Second: SKPKTFQAYLDDCHRRYSCAHSRA [C22S]
The protein stability index of the first is higher: 2.75 for the first, 1.86 for the second.

Going from SKPKTFQAYLDDCHRRYSCAHQRA [C22Q] to SKPKTFQAYLDDCHRRYSCAHIRA [C22I], the protein stability index falls from 3.22 to 2.69.

Compared with SKPKTFQAYLDDCHRRYSCAHLRA [C22L], SKPKTFQAYLDDCHRRYSCAHRRA [C22R] is higher in protein stability index: 2.37 for the first, 2.63 for the second.

Compared with SKPKTFQAYLDDCHRRYSCAHKRA [C22K], SKPKTFQAYLDDCHRRYSCAHVRA [C22V] is lower in protein stability index: 2.86 for the first, 2.64 for the second.

Compared with SKPKTFQAYLDDCHRRYSCAHCRH [A24H], SKPKTFQAYLDDCHRRYSCAHCRW [A24W] is higher in protein stability index: 1.85 for the first, 2.39 for the second.

Compared with SKPKTFQAYLDDCHRRYSCAHCRS [A24S], SKPKTFQAYLDDCHRRYSCAHCRC [A24C] is higher in protein stability index: 1.54 for the first, 1.83 for the second.

Compared with SKPKTFQAYLDDCHRRYSCAHCRM [A24M], SKPKTFQAYLDDCHRRYSCAHCRE [A24E] is lower in protein stability index: 2.07 for the first, 1.71 for the second.

Compared with SKPKTFQAYLDDCHRRYSCAHCRP [A24P], SKPKTFQAYLDDCHRRYSCAHCRF [A24F] is higher in protein stability index: 2.24 for the first, 2.59 for the second.

Going from SKPKTFQAYLDDCHRRYSCAHCRG [A24G] to SKPKTFQAYLDDCHRRYSCAHCRY [A24Y], the protein stability index rises from 2.32 to 2.86.

Compared with SKPKTFQAYLDDCHRRYSCAHCRI [A24I], SKPKTFQAYLDDCHRRYSCAHCRL [A24L] is lower in protein stability index: 2 for the first, 1.87 for the second.

Going from SKPKTFQAYLDDCHRRYSCAHCRR [A24R] to SKPKTFQAYLDDCHRRYSCAHCRD [A24D], the protein stability index rises from 1.71 to 1.73.

Compared with SKPKTFQAYLDDCHRRYSCAHCRK [A24K], SKPKTFQAYLDDCHRRYSCAHCRT [A24T] is lower in protein stability index: 3.42 for the first, 1.54 for the second.

First: SKPKTFQAYLDDCHRRYSCAHCRV [A24V]
Second: SKPKTFQAYLDDCHRRYSCAHCRN [A24N]
The protein stability index of the first is lower: 1.84 for the first, 2 for the second.

Going from SKPKTFQAYLDDCHRRYSCAHCRQ [A24Q] to SKPKTFQAYLDDCHRRYSCANCRA [H21N], the protein stability index falls from 2.59 to 1.57.

First: SKPKTFQAYLDDCHRRYSCASCRA [H21S]
Second: SKPKTFQAYLDDCHRRYSCARCRA [H21R]
The protein stability index of the first is lower: 2.19 for the first, 3.32 for the second.

First: SKPKTFQAYLDDCHRRYSCAQCRA [H21Q]
Second: SKPKTFQAYLDDCHRRYSCAPCRA [H21P]
The protein stability index of the first is higher: 2 for the first, 1.9 for the second.

Going from SKPKTFQAYLDDCHRRYSCAVCRA [H21V] to SKPKTFQAYLDDCHRRYSCAYCRA [H21Y], the protein stability index falls from 1.79 to 1.48.

First: SKPKTFQAYLDDCHRRYSCATCRA [H21T]
Second: SKPKTFQAYLDDCHRRYSCAWCRA [H21W]
The protein stability index of the first is higher: 2.34 for the first, 1.65 for the second.

SKPKTFQAYLDDCHRRYSCAMCRA [H21M] showed a protein stability index of 1.18.

Variants of: B2
Test: as above
Settings: c terminus: a fixed tail appended

First: FVEASFDPNINPTIGASFMTKTVQ [D4A]
Second: FVEYSFDPNINPTIGASFMTKTVQ [D4Y]
The protein stability index of the first is lower: 1.63 for the first, 2.98 for the second.

First: FVEKSFDPNINPTIGASFMTKTVQ [D4K]
Second: FVEQSFDPNINPTIGASFMTKTVQ [D4Q]
The protein stability index of the first is lower: 1.52 for the first, 1.82 for the second.

Going from FVEHSFDPNINPTIGASFMTKTVQ [D4H] to FVEWSFDPNINPTIGASFMTKTVQ [D4W], the protein stability index rises from 1.36 to 2.1.

First: FVEVSFDPNINPTIGASFMTKTVQ [D4V]
Second: FVELSFDPNINPTIGASFMTKTVQ [D4L]
The protein stability index of the first is lower: 2.36 for the first, 2.38 for the second.

First: FVENSFDPNINPTIGASFMTKTVQ [D4N]
Second: FVESSFDPNINPTIGASFMTKTVQ [D4S]
The protein stability index of the first is higher: 2.23 for the first, 1.65 for the second.

First: FVEPSFDPNINPTIGASFMTKTVQ [D4P]
Second: FVERSFDPNINPTIGASFMTKTVQ [D4R]
The protein stability index of the first is higher: 1.78 for the first, 1.7 for the second.

Compared with FVEISFDPNINPTIGASFMTKTVQ [D4I], FVEESFDPNINPTIGASFMTKTVQ [D4E] is lower in protein stability index: 3.06 for the first, 2.52 for the second.

Compared with FVEMSFDPNINPTIGASFMTKTVQ [D4M], FVEGSFDPNINPTIGASFMTKTVQ [D4G] is lower in protein stability index: 2.23 for the first, 2.02 for the second.

Going from FVEFSFDPNINPTIGASFMTKTVQ [D4F] to FVETSFDPNINPTIGASFMTKTVQ [D4T], the protein stability index falls from 3.14 to 1.89.

First: FVECSFDPNINPTIGASFMTKTVQ [D4C]
Second: FVCDSFDPNINPTIGASFMTKTVQ [E3C]
The protein stability index of the first is higher: 1.66 for the first, 1.59 for the second.

First: FVQDSFDPNINPTIGASFMTKTVQ [E3Q]
Second: FVNDSFDPNINPTIGASFMTKTVQ [E3N]
The protein stability index of the first is lower: 1.75 for the first, 1.96 for the second.

Going from FVDDSFDPNINPTIGASFMTKTVQ [E3D] to FVGDSFDPNINPTIGASFMTKTVQ [E3G], the protein stability index falls from 2.49 to 1.49.

Going from FVFDSFDPNINPTIGASFMTKTVQ [E3F] to FVMDSFDPNINPTIGASFMTKTVQ [E3M], the protein stability index falls from 2.57 to 1.84.

First: FVRDSFDPNINPTIGASFMTKTVQ [E3R]
Second: FVHDSFDPNINPTIGASFMTKTVQ [E3H]
The protein stability index of the first is higher: 2.54 for the first, 2.26 for the second.

Variant FVVDSFDPNINPTIGASFMTKTVQ [E3V] has a protein stability index of 1.75.

Source: the supplement of paper PMC10567573
